Test results: patent US20240002499A1 (UNIVERSITA DEGLI STUDI DI MILANO, published 2024)

B1: tmCLIC1omab (antibody, IgG1, V domains shown)
VH: EVMLVESGGGLVKPGGSLKLSCAASGFAFSNYAMSWIRQIPEKRLEWVATISTGGSSTFYPDSVKGRFTISRDNAKNTLYLQMSSLRSEDTAMYYCTRHAYEAWFAYWGQGTLVTVSA
VL: QIVLTQSPALMSASPGEKVTMTCSASSSVSYMYWYQQRPRSSPKPWIYLTSTLASGVPTRFSGSGSGTSYSLTISSMEAEDAATYYCQQWNSHPLTFGSGTKLEIK
notes: IgG1 class monoclonal antibody from mouse hybridoma; also called tmCLIComab; anti-tmCLIC1 monoclonal antibody
B2: class IgG2b antibody containing the heavy chain variable region SEQ ID NO:15 and the light chain variable region SEQ ID NO:16 (antibody, V domains shown)
VH: EVKLVESGGGLVKPGGSLKLSCAASGFTFSGYVMSWVRQTPDKRLEWVASISSGGSSYYSDRVKGRLTISRDNARNILFLQMSSLRSEDSAMYYCANGYNYAMDYWGQGTSVTVSS
VL: DIVMTQSHKFMSISVGDRVSITCKASQDVGTAVAWYQQKPGQSPQLLIYWASTWHTGVPDRFTGSGSGTDFTLTITNVQSEDLADYFCQQYKLFPLTFGAGTRLELK
notes: IgG2b

How the values were obtained:
QVELF sequence = molecular target: T1, QVELF sequence (human); test: PEPperMAP linear peptide microarray
T1 peptide: QVELF
Protocol: (§1) PEPperMAP epitope Mapping® of the tmCLIC1omab antibody was conducted against the peptide […] (amino acids 3-24 of the CLIC1 protein) translated to linear peptides consisting of 5, 10 and 15 amino acids with peptide-peptide overlaps of 4, 9 and 14 amino acids for high-resolution epitope data. The resulting CLIC1 peptide microarrays were incubated with the antibody samples at concentrations of 1 μg/ml, 10 μg/ml, 100 μg/ml and 250 μg/ml in incubation buffer, followed by staining with secondary and control antibodies and reading with a LI-COR Odyssey Imaging System. The intensity of the points and peptide annotation were quantified with the PepSlide® Analyzer.
(§2) Conversely, incubation of a second copy of the microarray of CLIC1 peptides with the tmCLIC1omab monoclonal antibody gave an antibody response with the epitopes formed by peptides adjacent to the VELF consensus motif (SEQ ID NO:22), with all peptide lengths having low or moderate signal-to-noise ratios. Additional very weak interactions of the antibody with the HA control peptides were observed, perhaps because of a cross-reaction or a less specific antibody bond. With the peptides consisting of 10 and […], longer […] (10 aa) (SEQ ID NO:23) and […] (15 aa) (SEQ ID NO:24) consensus motifs were observed, the underlined letters of which form part of linker […] (SEQ ID NO:25) specific to the microarray.

QVELFV sequence = molecular target: T2, QVELFV sequence (human); test: PEPperMAP linear peptide microarray
T2 peptide: QVELFV
Protocol: as §1, §2

[1] = molecular target: T3, human CLIC1 protein located on the plasma membrane (tmCLIC1) (human, UniProt O00299 2-241); test: cell-based or functional assay
[2] = molecular target: CLIC1 protein of microglial cells (BV-2), transmembrane form after stimulation (mouse, UniProt Q9Z1Q5 2-241); test: cell-based or functional assay
[3] = molecular target: T3, human CLIC1 protein located on the …; test: not specified (same experimental models as tmCLIC1omab)

Binder	binding result (QVELF sequence)	binding result (QVELFV sequence)	ROS production over time in human glioblastoma cells (fluorescence) [1]	membrane current, patch-clamp in whole-cell configuration on BV2 microglial cells after β-amyloid [2]	binding result [3]
B1	binds	binds	~5 fold	~4 fold	–
B2	–	–	–	–	binds
